± gives the uncertainty stated by the source.

The data set in a line: amyloid nucleation score (Sup35N fusion, yeast selection) (log enrichment); library NNK2; higher = more nucleation; inactive = no reads after selection. The gist of the method: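 The nucleation score is the log enrichment of output over input reads, calculated with DiMSum and centred on the mode score of non-aggregating sequences. Sequences with under 100 input reads were excluded. Reads came from Illumina sequencing of plasmid inserts from psi-negative yeast expressing Sup35N fused to peptides of 20 random codons, induced 24 hours with 100 μM copper sulfate and grown 7 days at 30°C without adenine and uracil.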
WWTAQGCTELTVS registered an amyloid nucleation score of 0.855 ± 0.27.
The value for LNTLDNN was -0.047 ± 0.16; that for TISFELSGMGIPSLWICGSR was 0.252 ± 0.65; that for FLRVRP was -0.719 ± 0.29.
The value for GGSVMQILGWFLQAV was 0.683 ± 0.42; that for KKLYFWINAHNRELTLKTWV was 0.226 ± 0.54.
In the case of ALCKFRDFFVMYNTGWHTVQ, the amyloid nucleation score was -0.935 ± 1.1.
The value for VNGTTGRSCNKNLDVFNSSI was -0.35 ± 1.1.
Turning to VLSRVDQSTGVIGQTGMVAC, the amyloid nucleation score was found to be 0.6 ± 0.17.
The result for NNNKI reads “inactive”; that for SPWCPQLSTGGCSNLGSLRR, 0.612 ± 0.31; that for LVPSY, 0.457 ± 0.18.
The result for LVHFNFMCVVARMFDMFF reads “inactive”; that for NFMSYIDKRWYQWLVSDRIS, 5.413 ± 0.047.
The result for AEYSSAKGFD reads -0.794 ± 0.55.
LFRCIKDMAY gave an amyloid nucleation score of 0.202 ± 0.51.
The value for RLHGGHLRRM was 0.902 ± 0.21.
Consider PYYKAGGYMVMVHLSRLFLL, for which the amyloid nucleation score is -0.882 ± 0.47.
The result for LRSYLNSHLLLEY reads -1.44 ± 0.62; that for KLWSSARFIWLSNHHLHGDC, 1.01 ± 0.57; that for LDWHAEHKGSCSFPDNEMLS, 0.394 ± 0.56.
As to YCNFDRIVYWPLGAAALPFR, the amyloid nucleation score amounted to 0.065 ± 1.1.
The result for RALVRLHSDYMLWRFMVADS reads 0.399 ± 0.42; that for RFYLVIFFVTL, “inactive”; that for AINWYYMHISMLECPAKNGS, -0.876 ± 0.76.
The result for FCGDILSVT reads 0.695 ± 0.66.
With SCRRMLFGMWILGFLNR, the amyloid nucleation score result was “inactive”.
The value for RFHGTGSQHS was -0.496 ± 0.39; that for NLALFCLVLMMEHQRFPCKA was 4.49 ± 0.072; that for VRVGCTWS was 0.618 ± 0.34.
The value for NDGMSSIRWGMTPHYVSSGD was 0.698 ± 0.14; that for TLYDGWLVGPVERRFVIRAL was 1.08 ± 0.21.
With RFRTKLECPYMIS, the amyloid nucleation score was found to be 0.453 ± 0.35.
The result for CMSIHCVTTSRVLKFNSKWY reads 3.11 ± 0.15; that for RCGCHDCVFLR, -0.202 ± 0.46.
As for VILRVIGIIMRDNKFSHDVR, the amyloid nucleation score entry was “inactive”.
Consider CTMWVDVCLSCDHMRYDNGG, for which the amyloid nucleation score amounted to 5.96 ± 0.093.
The result for LCNYLFSFEQMRNN reads -0.124 ± 0.42; that for TFNKLYYSSVACLCRLGHSR, 9.32 ± 0.055; that for SMPWYMYCIVYYVDVYCCNI, 6.566 ± 0.039.
On to ESGCQGNSLKCVLSRCNGWR, for which the amyloid nucleation score was 3.45 ± 0.1.
The result for QKWVF reads -0.76 ± 0.31.
For the substance KSKLRCTFYSDAL, the amyloid nucleation score was -0.219 ± 0.27.
With FVVQPLSSFLWVSIA, the amyloid nucleation score came out at 1.05 ± 0.3.
The result for VERFWLIWSRAYYFDFRVRE reads 0.098 ± 0.79; that for VWCCHLNINVASSLTVSCTR, 0.544 ± 0.21.
LNTYMAYSGWIVTN: the amyloid nucleation score was -0.148 ± 0.33.
Substance EAHILRLYMLSRLSGIVHMV gave an amyloid nucleation score of 0.434 ± 0.56.
The result for VDRHYRSLRFVVGQSVLHSK reads 4.952 ± 0.046.
The result for RLEPYCILSRV reads -1.75 ± 0.48; that for CTHHKCVWGIWSTFSVDSEL, -0.288 ± 1.1; that for VVNSVVPKRSRLCHFYFTGM, -1.02 ± 0.63.
Substance RVDARERNELDGIYFIVGSS came in with an amyloid nucleation score of -0.271 ± 1.
Turning to HGYSWCCFHVGS, the amyloid nucleation score came to 8.926 ± 0.054.
The value for FCLNATKAWFVLGVMYLDHW was -0.805 ± 0.35; that for DFDRSMRIARDNKRYGPVLV was -0.166 ± 1.1; that for LKRYKVRQFSTCLWAGAYSQ was 0.407 ± 0.23.
VCGWFHGHWGTWWDVQQRKR displayed an amyloid nucleation score of 2.3 ± 0.16.
With LLMQVIRPVNLLFRWRELWA, the amyloid nucleation score was 0.213 ± 0.34.
For YCDIKIEDLNLGGETGSDRR, the amyloid nucleation score result was “inactive”.
The value for SLFFFR was 5.03 ± 0.06; that for LVGYLSSVELDYRWENC was -0.026 ± 0.32; that for YFWGMFEYW was “inactive”.
For the substance FVEGLYWVSVVILG, the amyloid nucleation score was -1.58 ± 1.
The result for RRRIWATM reads -0.12 ± 0.31; that for CKYFLLVFIVVNYFGLGPMP, “inactive”; that for IAKGPGALYRSKMRWSGFVL, -0.817 ± 1.
As to WMLRGRYFGTE, the amyloid nucleation score is -1.47 ± 0.44.
The value for IFHSESALWRHRYMGYVMVR was -0.66 ± 0.45; that for RSSSNWSTSGGILRYVVLPK was -0.151 ± 0.42.
On to GMAFAKA, for which the amyloid nucleation score came out at 0.077 ± 0.63.
The result for VIRVLSMLFFSRVLVPVNSK reads 0.151 ± 0.62.
The value for SDVRLVLAASEIRYGAGCRW was 0.299 ± 0.65; that for PLVAMGMIINNI was -1.74 ± 0.48; that for YMTVLLMSVFNWSQSRRPP was 3.55 ± 0.077.
The value for SYVVVAPLCQCTTVSGRRGI was 1.04 ± 0.59; that for LVESVTEEQE was 0.837 ± 0.47.
Substance SYCTR returned an amyloid nucleation score of -0.645 ± 0.56.
As for KRWCRGSE, the amyloid nucleation score is 0.229 ± 0.24.
Take LVALK: the amyloid nucleation score is 1.08 ± 0.51.
The result for FFCRG reads 3.26 ± 0.084.
Substance TSFCTSVIGIVIHQDFAVDG displayed an amyloid nucleation score of 5.574 ± 0.045.
The value for TSGDCYMNGILNNGWGQ was -1.42 ± 0.78; that for FYLMPDCLWGGKSSWSFLHL was -0.873 ± 0.5.
The substance MCTGRFFSITSYGCKESSYL had an amyloid nucleation score of 1.49 ± 0.26.
The value for VRDIVYRYSGGRRS was “inactive”; that for RWLRPRSFWMDVVGSKI was 1.83 ± 0.11; that for WCNTRRCNSPPLVVC was 1.86 ± 0.12.
On to MIDRE, for which the amyloid nucleation score worked out at 0.83 ± 0.2.
The value for NSNTKTSPIISW was “inactive”.
As for CYRHVLFKATLKWCNFAVFI, the amyloid nucleation score was 7.383 ± 0.046.
The value for NCHMR was -0.19 ± 0.34.
FMRGLMARLCER: the amyloid nucleation score was 0.293 ± 0.4.
With MCELGFHNSPFSGTFLLLMF, the amyloid nucleation score amounted to 1.64 ± 0.12.
The substance YSFCWLYNYPFIFYGFAFED had an amyloid nucleation score of 5.951 ± 0.056.
The result for SWPVRFQLNATGSPVGRLWT reads -0.334 ± 0.76; that for CFSCLISWADMNSLLCYLEL, -1.66 ± 0.48.
The result for VFYNLGVHMWLWWSGIVLVR reads 0.775 ± 0.74; that for KLTFSCGGLGGNLYVWL, 7.999 ± 0.042.
HLFNGSGGLFSLTRSFMKS gave an amyloid nucleation score of -0.228 ± 1.1.
The value for AKVCLYIAICLSLVNS was 2.98 ± 0.065; that for SWWTMWLLTRLRNSSSWGMT was 0.011 ± 0.23.
In turn, TKSGCRGIGHSSVVSS displayed an amyloid nucleation score of 1.19 ± 0.37.
With LQLCCAMVS, the amyloid nucleation score turned out to be 0.883 ± 0.44.
Consider GVCLSGACAGISGGADYSGR, for which the amyloid nucleation score worked out at 0.332 ± 0.22.
The substance LRNHSHA gave an amyloid nucleation score of 0.685 ± 0.41.
The result for RTSKPLRRMNQRGLDFACAL reads 1.04 ± 0.41; that for YVSDYG, 0.199 ± 0.8; that for WVAFANFVHGLMTLGHWGSR, 1.28 ± 0.27.
The result for TSQLRMDGSSILMAHLKCYR reads 0.441 ± 0.26.
The result for GYTIDWMGVLQSVVLCT reads 0.524 ± 0.6; that for YIGLVSS, -0.052 ± 0.65; that for SRPTKYSKWILMPPCY, “inactive”.
Substance AFRSSSPSRVHELRQMKELV came in with an amyloid nucleation score of 1.14 ± 0.3.
In turn, DLGGMP had an amyloid nucleation score of -0.501 ± 0.48.
Substance LNLFFLCGYPYYRNVGCMGH had an amyloid nucleation score of 7.195 ± 0.067.
The value for RSDMH was 0.673 ± 0.44; that for NRWAYGVFWHSWFIKSHFG was 0.14 ± 1.
The result for NFNMYGVFCVY reads “inactive”.
The value for KMEMRGCRMVTNMYC was -0.06 ± 0.33.
TYPAHFVWLCNCCVDKYSLS: the amyloid nucleation score was 2.79 ± 0.069.
The value for LKSSNRGNVRKRLLGEDEGT was 0.245 ± 0.37.
The substance SCIYLGVLRKVCMRFIMVIV had an amyloid nucleation score of -1.03 ± 0.63.
The result for SFGWAYSVICLFIALTRTFL reads -0.123 ± 0.26; that for AEWISLQQFLSLQKEFWIKA, -0.596 ± 0.76; that for VIYVPLGKNLKIFSKHSFFG, -0.906 ± 0.76.
The substance IMGHYVYDVVR registered an amyloid nucleation score of -0.352 ± 0.36.
The result for NVHRRMSEYVCVDRWEEWVR reads 0.811 ± 0.67; that for SSVIHYRT, 0.038 ± 0.8; that for REVDIISHTMGGHRFNRERN, “inactive”.
The value for ISPIVEIGRASTVTLSDISV was 4.71 ± 0.054.
In turn, MLVLFADRRSMRDLDNTGFV displayed an amyloid nucleation score of 0.029 ± 0.79.
Consider IMCEGSTPDFIIYSCMLLVY, for which the amyloid nucleation score is -1.41 ± 0.42.
The value for GYIYVNSGYRFTKLCMVFC was 0.058 ± 0.79; that for YVMSAVFYSVRFVAIETCKV was 0.155 ± 0.57; that for TYCILPLRVRMWTSTTLCQV was 4.59 ± 0.055.
QFFTLFDVSRRLHFNTWLRL showed an amyloid nucleation score of -1.14 ± 0.64.
The value for YFYIF was 2.03 ± 0.12; that for MNQTCIRVDRLELYRYM was “inactive”; that for GVRMQLFGTLMSSAHQVRVG was 0.69 ± 0.17.
The result for RFYDFLFLFIPSRIELIMFR reads -0.729 ± 1.1.
The result for YVCGWINVLG reads -0.661 ± 0.63.

The values above are taken from the supplement of paper PMC12042874.
